Target: T1, LRP6 (low-density lipoprotein receptor-related protein 6) (UniProt O75581 20-1370, limits assumed)
T1 sequence (looked up): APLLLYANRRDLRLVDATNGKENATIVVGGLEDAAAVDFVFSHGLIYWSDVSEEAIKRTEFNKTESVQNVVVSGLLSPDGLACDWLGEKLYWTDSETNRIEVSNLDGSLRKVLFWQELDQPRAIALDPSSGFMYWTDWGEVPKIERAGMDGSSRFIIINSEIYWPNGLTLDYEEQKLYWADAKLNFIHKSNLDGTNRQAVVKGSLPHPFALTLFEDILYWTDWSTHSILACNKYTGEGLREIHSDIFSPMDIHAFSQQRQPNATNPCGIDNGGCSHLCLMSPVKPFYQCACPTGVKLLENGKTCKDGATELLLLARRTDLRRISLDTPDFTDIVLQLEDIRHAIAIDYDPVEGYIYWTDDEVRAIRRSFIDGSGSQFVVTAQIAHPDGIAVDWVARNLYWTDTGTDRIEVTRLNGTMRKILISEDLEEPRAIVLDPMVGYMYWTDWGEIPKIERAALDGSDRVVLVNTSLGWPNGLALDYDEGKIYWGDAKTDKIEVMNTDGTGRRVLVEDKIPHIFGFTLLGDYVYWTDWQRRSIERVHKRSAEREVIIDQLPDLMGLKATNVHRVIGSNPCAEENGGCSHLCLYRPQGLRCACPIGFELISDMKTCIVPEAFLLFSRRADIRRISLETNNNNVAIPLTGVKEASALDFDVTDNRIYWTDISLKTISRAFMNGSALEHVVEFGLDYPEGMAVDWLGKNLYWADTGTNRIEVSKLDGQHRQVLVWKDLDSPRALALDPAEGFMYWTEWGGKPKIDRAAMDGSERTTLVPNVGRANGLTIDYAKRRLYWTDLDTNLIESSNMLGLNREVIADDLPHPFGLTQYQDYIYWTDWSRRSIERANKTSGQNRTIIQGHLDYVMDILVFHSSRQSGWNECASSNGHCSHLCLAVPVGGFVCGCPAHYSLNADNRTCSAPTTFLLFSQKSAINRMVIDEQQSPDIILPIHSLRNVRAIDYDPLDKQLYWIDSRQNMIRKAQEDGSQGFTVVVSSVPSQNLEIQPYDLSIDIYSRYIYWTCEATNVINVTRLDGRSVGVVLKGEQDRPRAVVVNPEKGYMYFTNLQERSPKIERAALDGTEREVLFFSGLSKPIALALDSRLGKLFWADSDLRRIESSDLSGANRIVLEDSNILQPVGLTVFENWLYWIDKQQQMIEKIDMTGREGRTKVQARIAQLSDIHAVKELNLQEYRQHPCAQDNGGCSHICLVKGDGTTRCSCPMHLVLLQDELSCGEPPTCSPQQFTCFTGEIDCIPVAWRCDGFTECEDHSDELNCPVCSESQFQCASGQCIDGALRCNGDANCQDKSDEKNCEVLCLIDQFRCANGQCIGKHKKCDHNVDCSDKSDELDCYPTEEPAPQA
Experiment: cell-based or functional assay

B1: CM0011 (FZD Diabody-Fc-LRP Diabody; paratopes 5019; 2539, 2542) (bispecific antibody)
chain 1: MNLLLILTFVAAAVAEFEVQLVESGGGLVQPGGSLRLSCAASGFNIGSSSIHWVRQAPGKGLEWVASIYSAFASTSYADSVKGRFTISADTSKNTAYLQMNSLRAEDTAVYYCARYHFPFGFALDYWGQGTLVTVSSGGGGSDIQMTQSPSSLSASVGDRVTITCRASQSVSSAVAWYQQKPGKAPKLLIYSASSLYSGVPSRFSGSRSGTDFTLTISSLQPEDFATYYCQQGVYLFTFGQGTKVEIKLEDKTHTKVEPKSSDKTHNCPPCPAPELLGGPSVFLFPPKPKDTLMISRTPEVTCVVVDVSHEDPEVKFNWYVDGVEVHNAKTKPREEQYNSTYRVVSVLTVLHQDWLNGKEYKCKVSNKALPAPIEKTISKAKGQPREPQVYTLPPIRELMTSNQVSLSCAVKGFYPSDIAVEWESNGQPENNYKTTPPVLDSDGSFFLVSKLTVDKSRWQQGNVFSCSVMHEALHNHYTQKSLSLSPGKSGSETPGTSESATPESGGGEVQLVESGGGLVQPGGSLRLSCAASGFNISSYYIHWVRQAPGKGLEWVASIYSSYGYTSYADSVKGRFTISADTSKNTAYLQMNSLRAEDTAVYYCARTVRGSKKPYFSGWAMDYWGQGTLVTVSSGGGGSDIQMTQSPSSLSASVGDRVTITCRASQSVSSAVAWYQQKPGKAPKLLIYSASSLYSGVPSRFSGSRSGTDFTLTISSLQPEDFATYYCQQYSWGPFTFGQGTKVEIK
chain 2: MNLLLILTFVAAAVAEFEVQLVESGGGLVQPGGSLRLSCAASGFNIGSSSIHWVRQAPGKGLEWVASIYSAFASTSYADSVKGRFTISADTSKNTAYLQMNSLRAEDTAVYYCARYHFPFGFALDYWGQGTLVTVSSGGGGSDIQMTQSPSSLSASVGDRVTITCRASQSVSSAVAWYQQKPGKAPKLLIYSASSLYSGVPSRFSGSRSGTDFTLTISSLQPEDFATYYCQQGVYLFTFGQGTKVEIKLEDKTHTKVEPKTSDKTHTCPPCPAPELLGGPSVFLFPPKPKDTLMISRTPEVTCVVVDVSHEDPEVKFNWYVDGVEVHNAKTKPREEQYNSTYRVVSVLTVLHQDWLNGKEYKCKVSNKALPAPIEKTISKAKGQPREPMVFDLPPSREEMTKNQVSLWCMVKGFYPSDIAVEWESNGQPENNYKTTPPVLDSDGSFFLYSKLTVDKSRWQQGNVFSCSVMHEALHNHYTQKSLSLSPGKSGSETPGTSESATPESGGGEVQLVESGGGLVQPGGSLRLSCAASGFNISYSSIHWVRQAPGKGLEWVAYISSYYGYTYYADSVKGRFTISADTSKNTAYLQMNSLRAEDTAVYYCARAHYFPWAGAMDYWGQGTLVTVSSGGGGSDIQMTQSPSSLSASVGDRVTITCRASQSVSSAVAWYQQKPGKAPKLLIYSASSLYSGVPSRFSGSRSGTDFTLTISSLQPEDFATYYCQQYYWPITFGQGTKVEIK
  TOPFLASH % Wnt Maxima: 63 % Wnt Maxima

Source: patent publication US20260250398A1 (ANTLERA THERAPEUTICS, published 2026)
